What was measured:
His6-Fbp1Δ2–12 = biological target: T1, His6-Fbp1Δ2–12 (yeast (S. cerevisiae), UniProt P09201 1-348, Δ2–12); experiment: pull-down; His6-Fbp1 (wild type or mutant) pulled down on Talon metal affinity resin; reactions with two or all three proteins; 6 μg each of His6-Fbp1 (1.6 μM), Hsp70 (0.9 μM) and GST-Fes1 (1.09 μM), with or without ATP, ADP or AMP (2.5 mM); 50 mM Tris-HCl pH 7.5, 150 mM NaCl, 2% glycerol, 5 mM MgCl2; 30 min at 4°C; washed with 5 mM imidazole, eluted with 250 mM imidazole; stained SDS-PAGE gels, bands quantified …; conditions: both partners purified
T1 construct: Fbp1, yeast gluconeogenic enzyme, lacking amino acid residues 2–12; the initiator methionine is counted as residue 1; source: E. coli expression, purified; not shown: His6, N-terminal, kept
T1 sequence (looked up): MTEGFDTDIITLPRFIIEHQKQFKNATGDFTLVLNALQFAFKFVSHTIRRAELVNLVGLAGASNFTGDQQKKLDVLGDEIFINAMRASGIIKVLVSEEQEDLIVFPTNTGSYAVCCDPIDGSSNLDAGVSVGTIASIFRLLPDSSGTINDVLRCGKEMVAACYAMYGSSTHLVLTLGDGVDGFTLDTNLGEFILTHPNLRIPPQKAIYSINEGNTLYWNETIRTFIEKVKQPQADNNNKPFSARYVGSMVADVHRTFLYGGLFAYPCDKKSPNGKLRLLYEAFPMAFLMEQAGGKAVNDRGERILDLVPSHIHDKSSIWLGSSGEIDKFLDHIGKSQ

His6-Fbp1ΔP2 = biological target: T2, His6-Fbp1ΔP2 (yeast (S. cerevisiae), UniProt P09201 1-348, ΔP2); experiment: as above; conditions: both partners purified
T2 construct: Fbp1, yeast gluconeogenic enzyme, proline 2 deleted; the initiator methionine is counted as residue 1; also called Fbp1P2Δ; source: E. coli expression, purified; not shown: His6, N-terminal, kept
T2 sequence (looked up): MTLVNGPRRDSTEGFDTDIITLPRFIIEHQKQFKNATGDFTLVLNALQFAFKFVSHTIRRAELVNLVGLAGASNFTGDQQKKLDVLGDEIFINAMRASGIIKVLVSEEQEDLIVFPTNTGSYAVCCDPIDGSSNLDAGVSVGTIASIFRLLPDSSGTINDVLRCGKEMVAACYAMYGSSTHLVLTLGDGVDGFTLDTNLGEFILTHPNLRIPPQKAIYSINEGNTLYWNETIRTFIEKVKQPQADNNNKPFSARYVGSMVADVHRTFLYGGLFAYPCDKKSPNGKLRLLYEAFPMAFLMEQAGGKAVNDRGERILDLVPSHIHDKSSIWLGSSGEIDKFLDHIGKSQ

binding result (His6-Fbp1Δ2–12): binds
binding result (His6-Fbp1ΔP2): binds
B1: GST-Fes1 (natural protein, yeast (S. cerevisiae), UniProt P38260 1-290, looked up)
chain: MEKLLQWSIANSQGDKEAMARAGQPDPKLLQQLFGGGGPDDPTLMKESMAVIMNPEVDLETKLVAFDNFEMLIENLDNANNIENLKLWEPLLDVLVQTKDEELRAAALSIIGTAVQNNLDSQNNFMKYDNGLRSLIEIASDKTKPLDVRTKAFYALSNLIRNHKDISEKFFKLNGLDCIAPVLSDNTAKPKLKMRAIALLTAYLSSVKIDENIISVLRKDGVIESTIECLSDESNLNIIDRVLSFLSHLISSGIKFNEQELHKLNEGYKHIEPLKDRLNEDDYLAVKYVL
notes: Fes1, yeast Hsp70 nucleotide exchange factor; also called wild type GST-Fes1; source: E. coli expression, purified as described [15]; not shown: GST, N-terminal, kept

— paper PMC6615629, “Hsp70-nucleotide exchange factor (NEF) Fes1 has non-NEF roles in degradation of gluconeogenic enzymes and cell wall integrity” (PLoS Genetics, 2019)
